Source: US20150231240A1, “ANTI-C16ORF54 ANTIBODIES AND METHODS OF USE THEREOF” (priority 2012, published 2015)

How the values were obtained:
[1] = biological target: T1, cynomolgus monkey C16orf54 (cynomolgus monkey (Macaca fascicularis), UniProt Q6UWD8 1-224 (human entry)); experiment: flow cytometry titration, F279-cyno-C16orf54 cells
T1 construct: also called cyno C16orf54; cyno-C16orf54
T1 chain: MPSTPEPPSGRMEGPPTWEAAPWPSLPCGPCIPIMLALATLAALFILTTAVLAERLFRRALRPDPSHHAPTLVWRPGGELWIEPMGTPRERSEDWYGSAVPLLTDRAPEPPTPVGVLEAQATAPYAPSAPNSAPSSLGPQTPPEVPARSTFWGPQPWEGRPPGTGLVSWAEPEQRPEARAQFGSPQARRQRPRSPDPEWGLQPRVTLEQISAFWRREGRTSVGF
Protocol: Anti-C16orf54 antibodies which bound to human C16orf54 were tested for their binding to cells expressing human C16orf54 and cells expressing cyno C16orf54. […] Median fluorescence intensities for each primary antibody concentration were used to derive a flow EC50/Kd using the one site-specific binding with Hill slope model in Prism (GraphPad Prism® Software). Results are shown as flow EC50 in Table 35.

[2] = biological target: T2, human C16orf54 ECD fragment aa1-15 (human); experiment: peptide ELISA, 2 ug/ml peptide coated, 10 ug/ml antibody
T2 peptide: MPLTPEPPSGRVEGP
Protocol: (§1) Anti-C16orf54 antibodies which bind to human C16orf54, including antibodies that are crossreactive with cyno C16orf54, were tested for their binding to various peptides derived from C16orf54 in a peptide ELISA. A 384-well high binding black microplate (Greiner) was incubated with 2 μg/ml of protein (human, cyno, or mouse extracellular domain peptides) for 16 hours, incubated for 1 hr with a blocking buffer (PBS with 5% Fetal Bovine Serum), washed four times with TBS with Tween, incubated for 1 hour with 10 μg/ml of anti-C16orf54 antibody, washed four times with TBS with Tween, incubated for 1 hour with 10 μg/ml of Peroxidase-AffiniPure Goat Anti-Mouse IgG, Fcγ Fragment Specific (Jackson ImmunoResearch), washed four times with TBS with Tween, and peroxidase was detected with a luminometer (Molecular Devices) upon addition of SuperSignal® ELISA Pico Chemiluminescent Substrate (Thermo Scientific). The luminescence signal was determined.

[3] = biological target: T3, human C16orf54 ECD fragment aa9-24 (human); experiment: as above
T3 peptide: SGRVEGPPAWEAAPWP
Protocol: as §1

human C16orf54 [4] = biological target: T4, human C16orf54 (human, UniProt Q6UWD8 1-224); experiment: flow cytometry, 10 ug/ml antibody, D42M1-huC16orf54 cells
T4 construct: also called huC16orf54; hC16orf54
T4 sequence: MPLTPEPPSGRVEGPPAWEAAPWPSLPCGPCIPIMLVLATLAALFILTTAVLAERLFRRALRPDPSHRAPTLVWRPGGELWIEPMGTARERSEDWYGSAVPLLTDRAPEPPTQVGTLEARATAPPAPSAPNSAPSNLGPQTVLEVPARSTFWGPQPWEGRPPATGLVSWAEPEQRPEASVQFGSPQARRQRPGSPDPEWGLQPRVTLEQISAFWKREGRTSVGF
Protocol: (§2) Anti-C16orf54 antibodies which bound to human C16orf54 were tested for their reactivity with human C16orf54 and their crossreactivity with C16orf54 from cynomolgous monkeys (cyno C16orf54) using flow cytometry. Sarcoma cells transfected with and expressing human C16orf54 or cyno C16orf54 were washed with PBS with 0.1% BSA, incubated with FcX receptor blocking solution (BioLegend) for 15 minutes, incubated with 10 μg/ml of anti-C16orf54 antibody for 1 hour at 4° C., washed twice with PBS with 0.1% BSA, incubated with 20 μg/ml of R-Phycoerythrin-AffiniPure F(ab′)2 Fragment Goat Anti-Mouse IgG, Fcγ Fragment Specific (Jackson ImmunoResearch) for 30 minutes at 4° C., washed twice with PBS with 0.1% BSA, incubated with the viability dye TO-PRO-3 iodide (Life Technologies), and immediately analyzed on a MACSQuant Analyzer instrument (Miltenyi). For each cell line and anti-C16orf54 antibody, a fold change was derived by dividing the median fluorescence intensity for Phycoerythrin in the live cell population for the anti-C16orf54 antibody by the median fluorescence intensity for Phycoerythrin in the live cell population for the IgG isotype control antibody. A number of anti-C16orf54 antibodies (see, e.g., R29-8-57B, R29-8-136C, R29-7-1C, R29-67-7A, R29-67-4A, and R29-7-2A) bind human C16orf54 and also bind (e.g., are crossreactive with) cyno C16orf54.

[5] = biological target: T1, cynomolgus monkey C16orf54; experiment: flow cytometry, 10 ug/ml antibody, F279-cyno-C16orf54 cells
Protocol: as §2

human C16orf54 [6] = biological target: T4, human C16orf54; experiment: flow cytometry titration, KG1 cells (endogenous human C16orf54)
[7] = biological target: T5, Human C16-ECD peptide (aa1-31) (human); experiment: column head 'Full kinetics (nM)' in the table of the C16orf54 peptide binding assays; method and antigen not described; 3 runs
T5 construct: Coated on plates in the peptide ELISA; also called human extracellular domain peptide
T5 peptide: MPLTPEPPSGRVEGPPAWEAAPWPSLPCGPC

human C16orf54 [8] = biological target: T6, human C16orf54 (Homo sapiens, UniProt Q6UWD8); experiment: Flow cytometry reactivity with sarcoma cells expressing human C16orf54 (fold change over isotype); type: binding; conditions: for binding to human C16orf54 (flow cytometry): sarcoma cells expressing human C16orf54, 10 μg/ml antibody
T6 construct: expressed in transfected cells; host or cells: murine sarcoma cells (D42M1-huC16orf54)
T6 sequence (Q6UWD8 1-224): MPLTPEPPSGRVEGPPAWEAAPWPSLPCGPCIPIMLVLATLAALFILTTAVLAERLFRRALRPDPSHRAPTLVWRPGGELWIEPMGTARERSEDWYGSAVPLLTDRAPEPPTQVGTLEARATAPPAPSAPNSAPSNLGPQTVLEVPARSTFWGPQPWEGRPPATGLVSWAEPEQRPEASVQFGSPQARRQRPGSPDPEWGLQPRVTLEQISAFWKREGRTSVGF
Protocol: as §2, with “antibody.” for “antibody. A number of anti-C16orf54 antibodies (see, e.g., R29-8-57B, R29-8-136C, R29-7-1C, R29-67-7A, R29-67-4A, and R29-7-2A) bind human C16orf54 and also bind (e.g., are crossreactive with) cyno C16orf54.”

[9] = tested on: human C16orf54 extracellular domain peptides; experiment: C16orf54 peptide ELISA, human extracellular domain peptides; type: binding; conditions: human, cyno, or mouse extracellular domain peptides, not told apart; 10 μg/ml antibody
Protocol: as §1

[10] = biological target: T7, extracellular domain of c16orf54 (amino acids 1-31) fused to human IgG1 Fc (Homo sapiens, UniProt Q6UWD8); experiment: C16orf54 peptide-Fc fusion protein ELISA; type: binding; conditions: serial dilution of antibody; HRP-conjugated anti mouse secondary
T7 construct: the extracellular domain of c16orf54 (amino acids 1-31) either N terminal or C-terminal to a human IgG1 Fc domain; made in house; host or cells: 293 T cells, transient; Protein A purification
T7 sequence (Q6UWD8 1-31 limits assumed): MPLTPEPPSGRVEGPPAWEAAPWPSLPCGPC
Protocol: Anti-C16orf54 antibodies which bind to human C16orf54, including antibodies that are crossreactive with cyno C16orf54, were tested for their binding to various peptides derived from C16orf54 that were fused to human IgG (e.g., IgG1) constant regions to generate various peptide-Fc fusion proteins in an Fc-based ELISA. An exemplary Fc sequence comprises an IgG1 Hinge region sequence and IgG1 CH3 and […] domain sequences.
The fusion proteins were transiently expressed in 293 T cells. Protein was purified from the 293 expression supernatants by Protein A-based affinity purification. Exemplary C16 peptide-Fc fusion constructs that were made and purified are shown with their protein yield in Table 38. ELISA assays were performed by coating 384 well plates with the fusion proteins overnight at 4C. Antibodies were analyzed by serial dilution with concentrations ranging from 40 ug/mL to […]. Binding was detected with an HRP-conjugated anti mouse secondary antibody.

C16orf54 ECD peptides = experiment: Peptide crossblocking (Table 36); type: binding

B1: R29-8-57B (antibody, V domains shown)
VH: DVQLQESGPGLVKPSQSLSLTCTVTGYSITSDYAWNWIRQFPGNKLEWMGYINYSGSTRYNPSLKSRISITRDTSKNHFFLQLNSVTPEDTATYHCARERYDGVYYGMDYWGQGTSVTVSS
VL: DIVMSQSPSSLAVSVGEKVTMSCKSSQSLLYSSNQKNYLAWYQQKPGQSPKLLIYWASTRESGVPDRFTGSGSGTDFTLTISSVKTEDLAVYYCQQYYSYRTFGGGTKLEIK
notes: Murine monoclonal antibody from a hybridoma
EC50 [1]: 2500 pM
binding result [2]: binds
binding result [3]: binds
Median fold change relative to IgG control (human C16orf54 [4]): 204 fold
Median fold change relative to IgG control [5]: 62 fold
EC50 (human C16orf54 [6]): 100 pM
Kd [7]: 600 pM

B2: R29-8-136C (antibody, V domains shown)
VH: DVQLQESGPGLVKPSQSLSLTCTVTGYSITSDYAWNWIRQFPGNKLEWMGYINYSGSSRYNPSLKSRISITRDTSKNHFFLQLNSVTPEDTATYHCARERYDGVYYGMDYWGQGTSVTVSS
VL: DIVMSQSPSSLAVSVGEKVTMSCKSSQSLLYSSNQKNYLAWYQQKPGQSPKLLIYWASTRESGVPDRFTGSGSGTDFTLTISSVKTEDLAVYYCQQYYSYRTFGGGTKLEIK
notes: as for B1
EC50 [1]: 2500 pM
binding result [2]: binds
binding result [3]: binds
Median fold change relative to IgG control (human C16orf54 [4]): 202 fold
Median fold change relative to IgG control [5]: 61.6 fold
EC50 (human C16orf54 [6]): 200 pM
Kd [7]: 640 pM

B3: R29-8-57B: murine anti-C16orf54 monoclonal antibody; VH SEQ ID NO: 20, VL SEQ ID NO: 22 (antibody, V domains shown)
VH: MRVLILLWLFTAFPGILSDVQLQESGPGLVKPSQSLSLTCTVTGYSITSDYAWNWIRQFPGNKLEWMGYINYSGSTRYNPSLKSRISITRDTSKNHFFLQLNSVTPEDTATYHCARERYDGVYYGMDYWGQGTSVTVSS
VL: MDSQAQVLMSLLLWVSGTCGDIVMSQSPSSLAVSVGEKVTMSCKSSQSLLYSSNQKNYLAWYQQKPGQSPKLLIYWASTRESGVPDRFTGSGSGTDFTLTISSVKTEDLAVYYCQQYYSYRTFGGGTKLEIK
modifications: R29-8-57B heavy chain variable region; R29-8-57B light chain variable region
binding to C16orf54-expressing cells (dual binders) (human C16orf54 [8]): bind to C16orf54-expressing cells
binding to human C16orf54 (flow cytometry) (human C16orf54 [8]): bind human C16orf54
binding to peptides derived from the extracellular domain of C16orf54 (peptide ELISA) [9]: bind to the various peptides derived from the extracellular domain (ECD) of C16orf54
binding to peptide-Fc fusion proteins (Fc-based ELISA) [10]: able to bind to the peptide-Fc fusion proteins
Peptide crossblocking (C16orf54 ECD peptides): aa1-31, aa1-15

B4: R29-8-136C: murine anti-C16orf54 monoclonal antibody; VH SEQ ID NO: 16, VL SEQ ID NO: 18 (antibody, V domains shown)
VH: MRVLILLWLFTAFPGILSDVQLQESGPGLVKPSQSLSLTCTVTGYSITSDYAWNWIRQFPGNKLEWMGYINYSGSSRYNPSLKSRISITRDTSKNHFFLQLNSVTPEDTATYHCARERYDGVYYGMDYWGQGTSVTVSS
VL: MDSQAQVLMSLLLWVSGTCGDIVMSQSPSSLAVSVGEKVTMSCKSSQSLLYSSNQKNYLAWYQQKPGQSPKLLIYWASTRESGVPDRFTGSGSGTDFTLTISSVKTEDLAVYYCQQYYSYRTFGGGTKLEIK
modifications: R29-8-136C heavy chain variable region; R29-8-136C light chain variable region
binding to C16orf54-expressing cells (dual binders) (human C16orf54 [8]): bind to C16orf54-expressing cells
binding to human C16orf54 (flow cytometry) (human C16orf54 [8]): bind human C16orf54
binding to peptides derived from the extracellular domain of C16orf54 (peptide ELISA) [9]: bind to the various peptides derived from the extracellular domain (ECD) of C16orf54
Peptide crossblocking (C16orf54 ECD peptides): aa1-31, aa1-15
